The assay addresses T1, human PD-L1 (WT) (human, UniProt Q9NZQ7 19-127, limits assumed).
T1 construct: also called human PD-L1 N-terminal IgV domain
Briefly: affinity measurement, method not stated.

Usually Kd stands for the concentration at which binding is half-saturated.

T1 sequence (Q9NZQ7 19-127 limits assumed): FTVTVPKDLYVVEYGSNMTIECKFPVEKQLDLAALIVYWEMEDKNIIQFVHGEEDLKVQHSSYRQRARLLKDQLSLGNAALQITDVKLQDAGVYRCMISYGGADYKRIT

B1: PD-L1 ISVD-9 (VHH)
VHH: QVQLVESGGGLVQPGGSLRLSCAASGKMSSRRCMAWFRQAPGKERERVAKLLTTSGSTYLADSVKGRFTISRDNSKNTVYLQMNSLRAEDTAVYYCAADSFEDPTCTLVTSSGAFQYWGQGTLVTVSS
notes: also called ISVD specific for PD-L1; aPDL1.9
Take B1: the Kd was found to be 5.92 nM.

For the origin of these results see US20230015590A1 (JIANGSU ALPHAMAB BIOPHARMACEUTICALS, published 2023).
